From patent US20190307847A1 come the findings set out here.

In this experiment the target is mouse FGFR4/β-klotho complex co-expressed in rat L6 myoblast cells (mouse) (UniProt Q03142). In words: cell-based or functional assay.
Chain of mouse FGFR4/β-klotho complex co-expressed in rat L6 myoblast cells (mouse) (Q03142 17-799, chain 1 of 2): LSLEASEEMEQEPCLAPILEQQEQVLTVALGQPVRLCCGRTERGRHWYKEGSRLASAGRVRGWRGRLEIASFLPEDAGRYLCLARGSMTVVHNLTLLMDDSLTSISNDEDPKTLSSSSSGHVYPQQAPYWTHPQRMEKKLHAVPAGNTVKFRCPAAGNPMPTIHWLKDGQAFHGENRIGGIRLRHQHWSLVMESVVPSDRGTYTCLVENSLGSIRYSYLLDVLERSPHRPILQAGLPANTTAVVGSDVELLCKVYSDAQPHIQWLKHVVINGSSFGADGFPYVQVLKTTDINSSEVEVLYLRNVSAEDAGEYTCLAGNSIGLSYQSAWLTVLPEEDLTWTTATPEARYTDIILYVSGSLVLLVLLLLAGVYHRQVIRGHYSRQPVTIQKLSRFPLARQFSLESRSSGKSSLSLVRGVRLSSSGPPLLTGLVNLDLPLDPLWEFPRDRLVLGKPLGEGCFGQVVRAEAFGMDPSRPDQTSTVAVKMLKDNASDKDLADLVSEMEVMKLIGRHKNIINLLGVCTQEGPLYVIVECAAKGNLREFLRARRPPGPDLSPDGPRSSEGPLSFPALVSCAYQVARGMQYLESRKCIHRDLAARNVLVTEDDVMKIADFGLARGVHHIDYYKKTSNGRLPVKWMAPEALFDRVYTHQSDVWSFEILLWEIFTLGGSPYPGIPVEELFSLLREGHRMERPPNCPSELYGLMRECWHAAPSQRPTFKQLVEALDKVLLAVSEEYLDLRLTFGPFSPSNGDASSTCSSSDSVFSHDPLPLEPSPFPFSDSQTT
Chain of mouse FGFR4/β-klotho complex co-expressed in rat L6 myoblast cells (mouse) (Q99N32 whole entry, chain 2 of 2, further chain): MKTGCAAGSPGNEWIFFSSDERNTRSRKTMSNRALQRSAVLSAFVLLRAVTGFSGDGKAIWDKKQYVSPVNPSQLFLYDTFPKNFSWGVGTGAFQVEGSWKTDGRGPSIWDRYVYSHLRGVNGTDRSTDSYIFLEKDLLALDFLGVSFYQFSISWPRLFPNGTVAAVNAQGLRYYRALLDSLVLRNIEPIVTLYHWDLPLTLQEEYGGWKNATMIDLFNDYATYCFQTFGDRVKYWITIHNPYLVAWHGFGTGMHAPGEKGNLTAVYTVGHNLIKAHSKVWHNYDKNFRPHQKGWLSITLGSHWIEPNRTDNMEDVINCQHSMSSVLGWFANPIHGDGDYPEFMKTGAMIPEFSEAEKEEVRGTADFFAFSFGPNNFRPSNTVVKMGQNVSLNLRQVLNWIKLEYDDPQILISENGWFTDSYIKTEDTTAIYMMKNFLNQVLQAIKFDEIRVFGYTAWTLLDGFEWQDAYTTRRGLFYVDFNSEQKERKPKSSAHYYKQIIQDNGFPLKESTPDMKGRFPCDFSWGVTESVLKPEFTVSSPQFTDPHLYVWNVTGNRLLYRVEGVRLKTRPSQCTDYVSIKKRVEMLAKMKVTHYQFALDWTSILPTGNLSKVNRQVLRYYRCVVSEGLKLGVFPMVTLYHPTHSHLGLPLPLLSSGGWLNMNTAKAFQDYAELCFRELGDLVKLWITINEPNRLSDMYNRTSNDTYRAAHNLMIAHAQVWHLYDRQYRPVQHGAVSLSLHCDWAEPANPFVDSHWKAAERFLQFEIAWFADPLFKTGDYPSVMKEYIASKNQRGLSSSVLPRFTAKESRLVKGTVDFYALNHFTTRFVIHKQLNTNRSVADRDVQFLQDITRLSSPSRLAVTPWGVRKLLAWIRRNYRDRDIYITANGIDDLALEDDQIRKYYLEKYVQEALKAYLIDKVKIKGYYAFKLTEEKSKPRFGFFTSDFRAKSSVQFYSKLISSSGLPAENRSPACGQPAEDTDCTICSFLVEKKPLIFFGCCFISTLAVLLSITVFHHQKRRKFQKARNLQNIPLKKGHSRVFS

Take “FGF19 (human fibroblast growth factor 19, wild type) (from UniProt O95750 25-216) (ligand)”: the EC50 (pM), ELK luciferase assay in L6 cells was 52.5 pM and the Emax (fold potentiation), ELK luciferase assay in L6 cells (fold potentiation) was determined as 1.82.
